Among the data in publication PMC2924314, “Peptides derived from the HIV-1 integrase promote HIV-1 infection and multi-integration of viral cDNA in LEDGF/p75-knockdown cells” (Virology Journal, 2010) are Kd values, retold here.

For this assay, the target named is INS (IN derived-integrase stimulatory peptide) (HIV-1). Put plainly: ELISA.

On to “Lens Epithelium Derived Growth Factor p75 (LEDGF/p75), histidine-tagged recombinant, O75475 1-530 (natural protein; other documents disagree on this pair)”, for which the Kd is 2.2 µM.
